Here are results for two molecules from patent publication US20180112003A1 (UNIVERSITY OF SOUTHERN CALIFORNIA, published 2018).

The target of test [1] is T1, human luteinizing hormone receptor (LHR) (human, UniProt P22888 27-699).
T1 construct: Endogenous LHR on human ovarian carcinoma cell lines (ES-2, SKOV3); also called LHR on ES-2 human ovarian carcinoma cells; LHR on SKOV3 cells
As to the kind of experiment: flow cytometry screen of LHR-Fc ELISA positive hybridomas on ES-2 ovarian carcinoma cells; ratio of antibody MFI to isotype MFI. An excerpt: (§1) Antibodies against the […] extracellular hormone binding domain of LHR were generated by repeated immunization of 4 week-old-BALB/c and NIH Swiss mice with genetically engineered LHR-Fc. As shown below in FIG. 3, the leader sequence and first part of the human LHR G-protein was used to generate the LHR-Fc used in the immunization and screening methods to generate and identify high binding antibodies. […] A typical flow cytometry screen of hybridomas positive by initial ELISA screen using LHR-Fc coated plates is shown below in FIG. 4 using the ES-2 ovarian carcinoma cell line. […] These few candidate hybridomas were then subcloned by dilution in 96 well plates and expanded for freezing in vials. After further screening by flow cytometry, specific subclones were selected for large scale production using 2L vessels (GRrex, 100L, Wolfson). Filtered supernatants were then subjected to antibody purification using tandon protein A or G and ion exchange chromatography methods performed routinely in the laboratory. Once purified, five antibody subclones designated 8B7-3, 5F4-21, 5B1-1, 2H11-37, and 138-2 were sequenced to facilitate the engineering of single chain genes used for the construction of LHR CARs described below.

Test [2] deals with T1, human luteinizing hormone receptor (LHR). Briefly: flow cytometry on ES-2 human ovarian carcinoma cells; ratio of antibody MFI to isotype MFI.
Excerpt: as §1

T1 sequence (P22888 27-699 limits assumed): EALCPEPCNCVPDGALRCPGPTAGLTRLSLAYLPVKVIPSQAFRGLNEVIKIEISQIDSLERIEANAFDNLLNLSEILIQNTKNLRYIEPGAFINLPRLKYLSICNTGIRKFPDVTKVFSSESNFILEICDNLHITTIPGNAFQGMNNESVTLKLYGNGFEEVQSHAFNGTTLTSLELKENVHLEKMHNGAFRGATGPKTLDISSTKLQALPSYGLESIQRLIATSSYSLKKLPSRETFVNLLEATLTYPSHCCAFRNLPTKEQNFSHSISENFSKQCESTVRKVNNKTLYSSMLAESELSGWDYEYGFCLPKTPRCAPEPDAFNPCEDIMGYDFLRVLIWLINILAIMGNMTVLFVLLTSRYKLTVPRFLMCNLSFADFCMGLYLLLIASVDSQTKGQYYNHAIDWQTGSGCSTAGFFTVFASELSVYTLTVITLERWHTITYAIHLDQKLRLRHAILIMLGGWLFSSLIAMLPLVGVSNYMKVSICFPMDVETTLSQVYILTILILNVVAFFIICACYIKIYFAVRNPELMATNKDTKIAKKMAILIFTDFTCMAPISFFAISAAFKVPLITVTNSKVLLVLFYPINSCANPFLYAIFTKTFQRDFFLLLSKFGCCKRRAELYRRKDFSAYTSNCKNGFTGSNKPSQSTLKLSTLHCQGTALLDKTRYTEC

B1: LHR Antibody #8B7-3 (antibody, V domains shown)
VH: QVKLQQSGPELVKPGASVKISCKASGYSFTGYYMHWVKQSHGNILDWIGYIYPYNGVSSYNQKFKGKATLTVDKSSSTAYMELRSLTSEDSAVYYCARERGLYQLRAMDYWGQGTSVTVSS
VL: DIVLTQTPATLSVTPGDSVSLSCRASQSISNNLHWYQQKSHESPRLLIKNASQSISGIPSKFSGSGSGTDFTLRINSVETEDFGMYFCQQSNSWPYTFGSGTKLEIK
notes: Mouse monoclonal antibody from a hybridoma; also called hybridoma 8B7
B1: the binding result in test [1] is “binds”.

B2: LHR Antibody #5F4-21 (antibody, V domains shown)
VH: EVQLQESGPDLVKPSQSLSLTCTVTGYSITSGYGWHWIRQFPGNKLEWMGYIHYSGSTTYNPSLKSRISISRDTSKNQFFLQLNSVTTEDTATYYCARSLRYWGQGTTLTVSS
VL: DIVMTQTPAIMSASPGQKVTITCSASSSVNYMHWYQQKLGSSPKLWIYDTSKLAPGVPARFSGSGSGTSYSLTISSMEAEDAASYFCHQWSSYPYTFGSGTKLEIK
notes: Mouse monoclonal antibody from a hybridoma subclone
For B2, in test [2], the binding result is “binds”.
